This is an account of results in patent US20200181274A1.

This test has as its target CD123 (interleukin-3 receptor alpha) on CD123-positive human AML cells (KG-1a, Kasumi-3, AML patient blasts) (human) (UniProt P26951). The experiment in a line: cell-based or functional assay.
Sequence of UniProt P26951 (P26951 19-378): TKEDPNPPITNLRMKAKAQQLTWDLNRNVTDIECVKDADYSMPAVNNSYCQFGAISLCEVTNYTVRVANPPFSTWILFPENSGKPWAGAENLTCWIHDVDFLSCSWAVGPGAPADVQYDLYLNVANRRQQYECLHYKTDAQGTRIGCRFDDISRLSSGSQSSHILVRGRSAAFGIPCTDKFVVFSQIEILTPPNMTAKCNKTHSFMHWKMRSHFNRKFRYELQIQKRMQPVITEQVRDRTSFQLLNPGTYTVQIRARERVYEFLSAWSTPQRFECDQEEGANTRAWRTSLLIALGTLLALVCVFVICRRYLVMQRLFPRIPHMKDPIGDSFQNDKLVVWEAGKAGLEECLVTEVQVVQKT

As to “XmAb14045 bispecific anti-CD123 x anti-CD3 Fab-scFv-Fc antibody (bispecific antibody)”, the T cell-dependent cytotoxicity (RTCC) against CD123+ KG-1a cells with human PBMC as effectors, EC50 was 0.28 ng/mL; the T cell-dependent cytotoxicity (RTCC) against CD123+ Kasumi-3 cells with human PBMC as effectors, EC50 turned out to be 0.01 ng/mL; the apoptosis (annexin-V positivity) of CD123-expressing KG-1a cells with AML subject-derived PBMC, 48 hours was found to be 50%; the depletion of putative blast cell population in PBMC of 6 AML subjects, 48 hours was 20 to 90%. For the same substance, the reduction of putative leukemic blast number in AML PBMC, 9 or 90 ng/mL, 48 hours is 80%.
